{"source": "patent EP4793287A1", "about": "“TUMOR MICROENVIRONMENT SPECIFICALLY ACTIVATED CD47 ANTIBODY” (Affinity (Shanghai) Biopharmaceutical Co., Ltd., priority 2023, dated 2025)", "molecules": {"B1": {"name": "CD47 TMEAbody: CD47 TMEAbody conjugated with PEG of approximately 20K molecular weight (i.e., PEG20K) (conjugate)", "VH": "QQQLEESGGGLVKPEGSLTLTCTASGFSFSSGYDMCWVRQAPGRGLEWIACIYTRSSGGTCYASWAKGRFTISKTSSTVDLRMTSLTAADTATYFCAGGRSSYRLNLWGQGALVTVSS", "VL": "DVVMTQTPSPVEAAVGGTVTIKCQASQSISNELSWYQQKPGQPPKLLIYRASTLESGVSSRFKGSGSGTEFTLTISDLECADAATYYCQSTFYGDYGNAFGGGTEVVVK"}}, "key": {"Raji cells [1]": {"tested_on": "Raji cells", "experiment": "FACS binding of CD47 antibody to Raji cells", "procedure": "The required cell line, Raji (cultured in RPMI-1640 (ATCC Modification, Gibco, Cat# A10491-01) + 10% FBS (BI, Cat# 04-001-1A) + 1× P/S), was expanded to the logarithmic phase. Cells were collected and pipetted to create a single-cell suspension, followed by centrifugation and removal of the supernatant. The cells were resuspended in FACS buffer (PBS + 2% FBS) and counted, and the cell density was adjusted to 2×10^6/ml. 100 µl/well of this suspension was added to a 96-well plate (Corning, Cat# 3799). After centrifugation and removal of the supernatant, 100 µl/well of the antibody sample to be tested (initial concentration of 100 nM, 5-fold gradient dilutions) was added, mixed with the cells, and incubated at 4 °C for 1 hour. Cells were washed by centrifugation with FACS buffer for three times, then added with 100 µl/well of Goat anti-Human IgG Fc Secondary Antibody, PE (eBioscience™, Invitrogen, Cat# 12-4998-82, 1:200 dilution) and incubated at 4 °C for 1 hour. After three washes with FACS buffer by centrifugation, the cells were resuspended in 200 µl/well of FACS buffer and analyzed using FACS (BECKMAN COULTER, CytoFLEX). Data were fitted and the results were analyzed using software (GraphPad Prism 8)."}, "[2]": {"experiment": "In vivo hematological toxicity, blood cell counting", "design": "species or system hSIRPA/hCD47 (C57 background) mice", "conditions": "for PLT Count Mean / RBC Count Mean: 5mg/kg single intraperitoneal dose", "procedure": "hSIRPA/hCD47 (C57 background) mice were randomly divided into 4 groups based on body weight, with 3 mice per group. The hematological toxicity of 70H1.IgG1.Y61C+20K and 70H1.IgG1.Y61C+40K was studied via intraperitoneal injection.\nThe experimental groups were divided as follows: • 70H1.IgG1.Y61C+20K (5 mg/kg) group, • 70H1.IgG1.Y61C+40K (10 mg/kg) group, • 70H1.IgG1.Y61C+40K (20 mg/kg) group, • 70H1.IgG1.Y61C+40K (30 mg/kg) group.\nAfter grouping, a single dose of the corresponding antibody was administered intraperitoneally to the mice. Blood cell counting was performed on the mice at D0 (pre-dose), D2, D5, D7, D9, and D12."}, "[3]": {"tested_on": "Human Burkitt's lymphoma RAJI cells", "experiment": "In vivo efficacy, subcutaneous RAJI transplanted tumor model", "design": "species or system NOD-SCID mice", "conditions": "for T/C ratio / TGI inhibition rate: after 31 days of treatment", "procedure": "Human Burkitt's lymphoma RAJI cells were subcutaneously transplanted into NOD-SCID mice to establish an in vivo model. RAJI cells were cultured according to standard culture conditions and were collected during the exponential growth phase for counting. Each mouse was inoculated on the right flank with 1×10^7 human Burkitt's lymphoma RAJI cells (suspended in 0.1 ml of basal medium). After inoculation, when the tumors grew to 80-114 mm^3 (7 days post-tumor implantation), the mice were randomly grouped based on body weight and tumor volume. The experimental groups were divided as follows:\nTreatment was started on the day of grouping. Mice were weighed, and tumor volumes were measured twice a week. Tumor volume was calculated using the formula: tumor volume = 1/2 × length × width × width (mm^3). The tumor growth inhibition rate TGI (%) was calculated as [1 - (Tt - T0) / (Ct - C0)] × 100%. The tumor inhibition rate T/C (%) was calculated as (Tt/T0) / (Ct/C0) × 100%. T0 represents the tumor volume of the test antibody group at the time of grouping; Tt represents the tumor volume of the test antibody group at each measurement; C0 represents the average tumor volume of the PBS group at the time of grouping; Ct represents the average tumor volume of the PBS group at each measurement."}, "Raji cells [4]": {"tested_on": "Raji cells", "experiment": "ADCC assay with PBMCs, LDH detection", "type": "cell-based", "procedure": "Raji cells (cultured in RPMI-1640 (ATCC Modification, Gibco, Cat# A10491-01) + 10% FBS (BI, Cat# 04-001-1A) + 1× P/S) were expanded to the logarithmic phase. Cells were collected and pipetted to create a single-cell suspension. After centrifugation, the supernatant was discarded, and the cells were resuspended in culture medium, counted, and the cell density was adjusted to 2×10^5/ml. 50 µl/well of this suspension was added to a 96-well cell culture plate (Corning, Cat# 3599) and incubated overnight at 37°C in a 5% CO2 atmosphere. PBMCs (XF, Cat# XC11100W) were resuspended in 10% FBS-RPMI1640 medium. After centrifugation, the supernatant was discarded, and the cell density was adjusted to 8×10^6/ml. 50 µl/well of the antibody to be tested and 50 µl of the PBMC suspension (E:T ratio of […]) were added to the culture plate. The plate was placed in a CO2 incubator and incubated for 24 hours. The ADCC assay was performed using an LDH detection kit (Cytotoxicity Detection KitPLUS (LDH), Roche, Cat# 4744934001)."}}}
{"molecule": "B1", "values": [{"measurement": "binding to Raji cells lower compared to 70H1", "setting": "Raji cells [1]", "value": "approximately 60 fold"}, {"measurement": "PLT Count Mean", "setting": "[2]; D0 (pre-dose)", "value": "1668.33 10^9/L"}, {"measurement": "RBC Count Mean", "setting": "[2]; D0 (pre-dose)", "value": "8.53 10^12/L"}, {"measurement": "PLT Count Mean", "setting": "[2]; D2", "value": "1406.33 10^9/L"}, {"measurement": "RBC Count Mean", "setting": "[2]; D2", "value": "6.56 10^12/L"}, {"measurement": "PLT Count Mean", "setting": "[2]; D5", "value": "1142.33 10^9/L"}, {"measurement": "RBC Count Mean", "setting": "[2]; D5", "value": "7.48 10^12/L"}, {"measurement": "PLT Count Mean", "setting": "[2]; D7", "value": "1435.33 10^9/L"}, {"measurement": "RBC Count Mean", "setting": "[2]; D7", "value": "9.62 10^12/L"}, {"measurement": "PLT Count Mean", "setting": "[2]; D9", "value": "1356.00 10^9/L"}, {"measurement": "RBC Count Mean", "setting": "[2]; D9", "value": "9.55 10^12/L"}, {"measurement": "PLT Count Mean", "setting": "[2]; D12", "value": "1351.00 10^9/L"}, {"measurement": "RBC Count Mean", "setting": "[2]; D12", "value": "9.45 10^12/L"}, {"measurement": "change in red blood cells", "setting": "[2]; 5 mg/kg, D2 post-administration", "value": "reversible decrease in red blood cells"}, {"measurement": "change in platelets", "setting": "[2]; 5 mg/kg, D5 post-administration", "value": "reversible decrease in platelets"}, {"measurement": "Tumor Volume", "setting": "[3]; 0.3 mg/kg, D0", "value": 94.56, "unit": "mm^3"}, {"measurement": "Tumor Volume", "setting": "[3]; 0.3 mg/kg, D3", "value": 123.83, "unit": "mm^3"}, {"measurement": "Tumor Volume", "setting": "[3]; 0.3 mg/kg, D7", "value": 147.44, "unit": "mm^3"}, {"measurement": "Tumor Volume", "setting": "[3]; 0.3 mg/kg, D10", "value": 232.04, "unit": "mm^3"}, {"measurement": "Tumor Volume", "setting": "[3]; 0.3 mg/kg, D14", "value": 358.82, "unit": "mm^3"}, {"measurement": "Tumor Volume", "setting": "[3]; 0.3 mg/kg, D17", "value": 511.34, "unit": "mm^3"}, {"measurement": "Tumor Volume", "setting": "[3]; 0.3 mg/kg, D21", "value": 849.95, "unit": "mm^3"}, {"measurement": "Tumor Volume", "setting": "[3]; 0.3 mg/kg, D24", "value": 1156.48, "unit": "mm^3"}, {"measurement": "Tumor Volume", "setting": "[3]; 0.3 mg/kg, D28", "value": 1887.63, "unit": "mm^3"}, {"measurement": "Tumor Volume", "setting": "[3]; 0.3 mg/kg, D31", "value": 2532.90, "unit": "mm^3"}, {"measurement": "T/C ratio", "setting": "[3]; 0.3 mg/kg", "value": 93.73, "unit": "%"}, {"measurement": "TGI inhibition rate", "setting": "[3]; 0.3 mg/kg", "value": 6.45, "unit": "%"}, {"measurement": "Tumor Volume", "setting": "[3]; 1 mg/kg, D0", "value": 94.25, "unit": "mm^3"}, {"measurement": "Tumor Volume", "setting": "[3]; 1 mg/kg, D3", "value": 100.17, "unit": "mm^3"}, {"measurement": "Tumor Volume", "setting": "[3]; 1 mg/kg, D7", "value": 116.36, "unit": "mm^3"}, {"measurement": "Tumor Volume", "setting": "[3]; 1 mg/kg, D10", "value": 162.08, "unit": "mm^3"}, {"measurement": "Tumor Volume", "setting": "[3]; 1 mg/kg, D14", "value": 214.12, "unit": "mm^3"}, {"measurement": "Tumor Volume", "setting": "[3]; 1 mg/kg, D17", "value": 307.27, "unit": "mm^3"}, {"measurement": "Tumor Volume", "setting": "[3]; 1 mg/kg, D21", "value": 384.91, "unit": "mm^3"}, {"measurement": "Tumor Volume", "setting": "[3]; 1 mg/kg, D24", "value": 485.51, "unit": "mm^3"}, {"measurement": "Tumor Volume", "setting": "[3]; 1 mg/kg, D28", "value": 679.76, "unit": "mm^3"}, {"measurement": "Tumor Volume", "setting": "[3]; 1 mg/kg, D31", "value": 890.40, "unit": "mm^3"}, {"measurement": "T/C ratio", "setting": "[3]; 1 mg/kg", "value": 33.06, "unit": "%"}, {"measurement": "TGI inhibition rate", "setting": "[3]; 1 mg/kg", "value": 69.46, "unit": "%"}, {"measurement": "Tumor Volume", "setting": "[3]; 3 mg/kg, D0", "value": 93.15, "unit": "mm^3"}, {"measurement": "Tumor Volume", "setting": "[3]; 3 mg/kg, D3", "value": 91.90, "unit": "mm^3"}, {"measurement": "Tumor Volume", "setting": "[3]; 3 mg/kg, D7", "value": 81.07, "unit": "mm^3"}, {"measurement": "Tumor Volume", "setting": "[3]; 3 mg/kg, D10", "value": 87.74, "unit": "mm^3"}, {"measurement": "Tumor Volume", "setting": "[3]; 3 mg/kg, D14", "value": 92.16, "unit": "mm^3"}, {"measurement": "Tumor Volume", "setting": "[3]; 3 mg/kg, D17", "value": 91.91, "unit": "mm^3"}, {"measurement": "Tumor Volume", "setting": "[3]; 3 mg/kg, D21", "value": 129.68, "unit": "mm^3"}, {"measurement": "Tumor Volume", "setting": "[3]; 3 mg/kg, D24", "value": 117.69, "unit": "mm^3"}, {"measurement": "Tumor Volume", "setting": "[3]; 3 mg/kg, D28", "value": 125.24, "unit": "mm^3"}, {"measurement": "Tumor Volume", "setting": "[3]; 3 mg/kg, D31", "value": 120.05, "unit": "mm^3"}, {"measurement": "T/C ratio", "setting": "[3]; 3 mg/kg", "value": 4.51, "unit": "%"}, {"measurement": "TGI inhibition rate", "setting": "[3]; 3 mg/kg", "value": 98.97, "unit": "%"}, {"measurement": "tumor growth inhibition", "setting": "[3]; 0.3-3 mg/kg", "value": "significant tumor growth inhibition"}, {"measurement": "changes in body weight", "setting": "[3]; during the treatment period", "value": "No significant changes in body weight"}, {"measurement": "EC50", "setting": "Raji cells [4]; ADCC, E:T ratio of 20:1, 24 hours", "value": 16.3, "unit": "nM"}, {"measurement": "ADCC activity", "setting": "Raji cells [4]; after the CD47 TMEAbody was activated", "value": "restored"}, {"measurement": "ADCC activity", "setting": "Raji cells [4]; not activated, compared to the 70H1 antibody", "value": "lost its ADCC activity"}]}
